The numbers were not newly measured in patent US9034821B2, “Pharmaceutical composition” (priority 2011, dated 2015), which cites them from elsewhere.

Where two headings read alike, the source gives them in different places.

Consider “Cys-Tyr-Ile-Gln-Asn-Cys-Pro-Leu-Gly-NH2 [oxytocin]”, for which the “pH of best stability” value (aqueous solutions of different pH) was 4.5. The degradation of oxytocin result reads like this: (buffered aqueous solution of pH 3, stored at 70° C. for 7 days) “about 15 % (area %)”; (buffered aqueous solution, pH 4, stored at 70° C. for 7 days) “approximately 35 % (area %)”.
